According to US20140087995A1 (published 2014):
Numbered stars: 1 amine (or outer) side, 2 acyl side, 3 side chain; on linkers, the order of the positions; unused ones are H or OH. Bridge positions count the residues as written; N and C are the ends. Side chains are listed from the residue outwards. Ends that are not written are not given here. * marks the point of attachment. C20 diacid = O=C(O)CCCCCCCCCCCCCCCCCCC(=O)*; C18 diacid = O=C(O)CCCCCCCCCCCCCCCCC(=O)*; γGlu = O=C(O)[C@H](CCC(=O)[*:2])N[*:1]; C14 diacid = O=C(O)CCCCCCCCCCCCC(=O)*

T1: human calcitonin receptor (human, UniProt P30988 25-474)
T1 construct: whole, on cells; Used as membranes prepared from the transfected cells (Assay VII); also called hCTR; hCT
T1 sequence (looked up): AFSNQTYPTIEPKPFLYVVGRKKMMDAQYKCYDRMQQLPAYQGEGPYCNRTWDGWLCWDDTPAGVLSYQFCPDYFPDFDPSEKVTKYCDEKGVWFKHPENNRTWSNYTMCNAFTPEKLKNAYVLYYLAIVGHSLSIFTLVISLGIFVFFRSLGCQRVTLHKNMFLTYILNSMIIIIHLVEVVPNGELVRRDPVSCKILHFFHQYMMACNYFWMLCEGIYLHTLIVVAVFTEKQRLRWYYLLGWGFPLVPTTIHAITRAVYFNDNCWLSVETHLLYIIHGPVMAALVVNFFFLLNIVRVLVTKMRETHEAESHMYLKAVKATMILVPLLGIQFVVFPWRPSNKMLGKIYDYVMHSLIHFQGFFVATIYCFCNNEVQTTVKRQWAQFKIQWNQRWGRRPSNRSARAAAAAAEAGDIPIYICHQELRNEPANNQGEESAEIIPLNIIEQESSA

T2: rat calcitonin receptor (rat, UniProt P32214 25-516)
T2 construct: whole, on cells; Used as membranes prepared from the transfected cells (Assay VIII); also called rCTR; rat calcitonin (a) receptor
T2 sequence (looked up): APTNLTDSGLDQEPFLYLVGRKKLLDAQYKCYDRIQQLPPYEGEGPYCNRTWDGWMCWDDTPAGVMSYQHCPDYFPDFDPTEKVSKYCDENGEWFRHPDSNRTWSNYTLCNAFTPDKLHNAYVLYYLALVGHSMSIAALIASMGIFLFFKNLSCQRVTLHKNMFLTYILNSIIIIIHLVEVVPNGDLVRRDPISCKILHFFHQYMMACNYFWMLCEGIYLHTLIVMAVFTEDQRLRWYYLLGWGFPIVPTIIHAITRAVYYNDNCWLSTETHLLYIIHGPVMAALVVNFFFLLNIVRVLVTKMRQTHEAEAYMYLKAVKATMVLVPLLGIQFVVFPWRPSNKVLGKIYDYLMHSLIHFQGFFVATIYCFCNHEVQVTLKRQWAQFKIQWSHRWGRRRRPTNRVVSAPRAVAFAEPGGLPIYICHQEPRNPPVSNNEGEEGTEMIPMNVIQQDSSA

T3: rat amylin receptor (rat calcitonin receptor + rat RAMP 3) (rat, UniProt P32214 25-516; Q9JJ73 23-147)
T3 construct: whole, on cells; Used as membranes prepared from the transfected cells (Assay VI); also called rAmylin-R; rat amylin 3(a) receptor
T3 sequence (looked up) 1: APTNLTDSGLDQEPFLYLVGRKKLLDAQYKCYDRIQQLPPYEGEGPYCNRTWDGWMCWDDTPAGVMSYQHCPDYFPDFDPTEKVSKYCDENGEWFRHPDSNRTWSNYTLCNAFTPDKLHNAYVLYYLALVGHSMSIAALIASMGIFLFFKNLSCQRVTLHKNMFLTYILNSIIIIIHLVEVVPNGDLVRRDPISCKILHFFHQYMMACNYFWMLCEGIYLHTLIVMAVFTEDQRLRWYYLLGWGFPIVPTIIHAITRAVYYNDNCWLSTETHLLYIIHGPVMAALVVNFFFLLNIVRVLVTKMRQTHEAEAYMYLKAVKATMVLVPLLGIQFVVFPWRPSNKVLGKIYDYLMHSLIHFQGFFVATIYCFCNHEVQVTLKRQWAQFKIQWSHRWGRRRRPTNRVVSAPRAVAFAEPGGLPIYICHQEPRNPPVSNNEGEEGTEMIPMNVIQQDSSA
T3 sequence (looked up) 2: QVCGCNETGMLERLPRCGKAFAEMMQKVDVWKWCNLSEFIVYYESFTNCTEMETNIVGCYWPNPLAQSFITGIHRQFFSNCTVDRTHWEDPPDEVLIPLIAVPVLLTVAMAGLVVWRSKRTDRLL


Assays:
[1] = molecular target: T1, human calcitonin receptor; assay: ratio of IC50 on human calcitonin receptor (Assay VII) to IC50 on human amylin receptor (Assay V)
Experimental: The resulting pellet was resuspended, homogenized and centrifuged (20.000 rpm, 15 min) in a buffer containing 20 mM Na-HEPES and 0.1 mM EDTA (pH 7.4, buffer 2). The resulting pellet was resuspended in buffer 2 and protein concentration was measured (BCA protein Assay, Pierce). The homogenate was kept cold during the whole procedure. The membranes were kept at −80° C. until use. The assay was performed in a 384 well Optiplate (PerkinElmer) in a total volume of 40 ul. Membranes were mixed with SPA beads. Final concentration of membranes 35 ng/μL final and SPA beads was 0.05 mg/well. Test-compounds were dissolved in DMSO and further diluted in assay buffer (50 mM Hepes, pH 7.4, 1 mM CaCl2, 5 mM MgCl₂, 0.1% OA and 0.02% Tween20). […] The final mixture was incubated with shaking at 400 rpm for 120 min at 25° C. prior to centrifugation (1500 rpm, 10 min). Samples were analyzed on TopCounter™ (Packard). The IC₅₀ was calculated using (one site binding competition analysis) GraphPad Prism5 as a measure of receptor affinity.
Membranes were prepared in the following way; the cells were rinsed with PBS and incubated with Versene for approximately 5 min before harvesting. The cells were flushed with PBS and the cell-suspension was centrifuged for 5 min at 1000 rpm. Cells were homogenized (Ultrathurrax) in a buffer containing 20 mM Na-HEPES and 10 mM EDTA (pH 7.4) and centrifuged at 20.000 rpm for 15 min. The resulting pellet was resuspended, homogenized and centrifuged (20.000 rpm, 15 min) in a buffer containing 20 mM Na-HEPES and 0.1 mM EDTA (pH 7.4, buffer 2). The resulting pellet was resuspended in buffer 2 and protein concentration was measured (BCA protein Assay, Pierce). The homogenate was kept cold during the whole procedure. The membranes were kept at −80° C. until use. Assay was performed in a 384 well Optiplate (PerkinElmer) in a total volume of 40 ul. Membranes were mixed with SPA beads.

rat calcitonin receptor [2] = molecular target: T2, rat calcitonin receptor; assay: SPA competition binding, displacement of 125I-calcitonin from membranes of BHK tk'ts 13 cells transfected with rat calcitonin receptor (Assay VIII)
rat calcitonin receptor [3] = molecular target: T2, rat calcitonin receptor; assay: ratio of IC50 on rat calcitonin receptor (Assay VIII) to IC50 on rat amylin receptor (Assay VI)
[4] = molecular target: T3, rat amylin receptor (rat calcitonin …); assay: SPA competition binding, displacement of 125I-rat amylin from membranes of BHK tk'ts 13 cells transfected with rat calcitonin receptor + rat RAMP 3 (Assay VI)

Row | Ratio hCT/hAmylin binding [1] | IC50 (rat calcitonin receptor [2]) [nM] | Ratio rCT/rAmylin binding (rat calcitonin receptor [3]) | IC50 [4] [nM] | Binder
1 | 53.6 | 38.3 | 113 | 0.339 | K([γGlu-γGlu-C20 diacid])CNTATCATQRLAEFLRHSSPNFGAIPSSTNVGPRTY-NH2 (disulfide 2-7; N-terminus assumed; SMILES CC[C@H](C)[C@H](NC(=O)[C@H](C)NC(=O)CNC(=O)[C@H](Cc1ccccc1)NC(=O)[C@H](CC(N)=O)NC(=O)[C@@H]1CCCN1C(=O)[C@H](CO)NC(=O)[C@H](CO)NC(=O)[C@H](Cc1c[nH]cn1)NC(=O)[C@H](CCCNC(=N)N)NC(=O)[C@H](CC(C)C)NC(=O)[C@H](Cc1ccccc1)NC(=O)[C@H](CCC(=O)O)NC(=O)[C@H](C)NC(=O)[C@H](CC(C)C)NC(=O)[C@H](CCCNC(=N)N)NC(=O)[C@H](CCC(N)=O)NC(=O)[C@@H](NC(=O)[C@H](C)NC(=O)[C@@H]1CSSC[C@H](NC(=O)[C@@H](N)CCCCNC(=O)CC[C@H](NC(=O)CC[C@H](NC(=O)CCCCCCCCCCCCCCCCCCC(=O)O)C(=O)O)C(=O)O)C(=O)N[C@@H](CC(N)=O)C(=O)N[C@@H]([C@@H](C)O)C(=O)N[C@@H](C)C(=O)N[C@@H]([C@@H](C)O)C(=O)N1)[C@@H](C)O)C(=O)N1CCC[C@H]1C(=O)N[C@@H](CO)C(=O)N[C@@H](CO)C(=O)N[C@H](C(=O)N[C@@H](CC(N)=O)C(=O)N[C@H](C(=O)NCC(=O)N1CCC[C@H]1C(=O)N[C@@H](CCCNC(=N)N)C(=O)N[C@H](C(=O)N[C@@H](Cc1ccc(O)cc1)C(N)=O)[C@@H](C)O)C(C)C)[C@@H](C)O, not restated for each compound; also called compound 110)
2 | 23.5 | 707 | 280 | 2.52 | K([γGlu-C14 diacid])CNTATCATQRLANFLRHSSPNFGAIPSSTNVGHNTY-NH2 (disulfide 2-7; N-terminus assumed; SMILES CC[C@H](C)[C@H](NC(=O)[C@H](C)NC(=O)CNC(=O)[C@H](Cc1ccccc1)NC(=O)[C@H](CC(N)=O)NC(=O)[C@@H]1CCCN1C(=O)[C@H](CO)NC(=O)[C@H](CO)NC(=O)[C@H](Cc1c[nH]cn1)NC(=O)[C@H](CCCNC(=N)N)NC(=O)[C@H](CC(C)C)NC(=O)[C@H](Cc1ccccc1)NC(=O)[C@H](CC(N)=O)NC(=O)[C@H](C)NC(=O)[C@H](CC(C)C)NC(=O)[C@H](CCCNC(=N)N)NC(=O)[C@H](CCC(N)=O)NC(=O)[C@@H](NC(=O)[C@H](C)NC(=O)[C@@H]1CSSC[C@H](NC(=O)[C@@H](N)CCCCNC(=O)CC[C@H](NC(=O)CCCCCCCCCCCCC(=O)O)C(=O)O)C(=O)N[C@@H](CC(N)=O)C(=O)N[C@@H]([C@@H](C)O)C(=O)N[C@@H](C)C(=O)N[C@@H]([C@@H](C)O)C(=O)N1)[C@@H](C)O)C(=O)N1CCC[C@H]1C(=O)N[C@@H](CO)C(=O)N[C@@H](CO)C(=O)N[C@H](C(=O)N[C@@H](CC(N)=O)C(=O)N[C@H](C(=O)NCC(=O)N[C@@H](Cc1c[nH]cn1)C(=O)N[C@@H](CC(N)=O)C(=O)N[C@H](C(=O)N[C@@H](Cc1ccc(O)cc1)C(N)=O)[C@@H](C)O)C(C)C)[C@@H](C)O, not restated for each compound) [N^ε1-[(4S)-4-carboxy-4-(13-carboxytridecanoylamino)butanoyl]-[Arg17,Pro21,Pro27,His34]-h-amylin]
3 | 151 | 58.5 | 116 | 0.504 | K([γGlu-C20 diacid])CNTATCATQRLADFLRHSSPNFGAIPSSTNVGPRTY-NH2 (disulfide 2-7; N-terminus assumed; SMILES CC[C@H](C)[C@H](NC(=O)[C@H](C)NC(=O)CNC(=O)[C@H](Cc1ccccc1)NC(=O)[C@H](CC(N)=O)NC(=O)[C@@H]1CCCN1C(=O)[C@H](CO)NC(=O)[C@H](CO)NC(=O)[C@H](Cc1c[nH]cn1)NC(=O)[C@H](CCCNC(=N)N)NC(=O)[C@H](CC(C)C)NC(=O)[C@H](Cc1ccccc1)NC(=O)[C@H](CC(=O)O)NC(=O)[C@H](C)NC(=O)[C@H](CC(C)C)NC(=O)[C@H](CCCNC(=N)N)NC(=O)[C@H](CCC(N)=O)NC(=O)[C@@H](NC(=O)[C@H](C)NC(=O)[C@@H]1CSSC[C@H](NC(=O)[C@@H](N)CCCCNC(=O)CC[C@H](NC(=O)CCCCCCCCCCCCCCCCCCC(=O)O)C(=O)O)C(=O)N[C@@H](CC(N)=O)C(=O)N[C@@H]([C@@H](C)O)C(=O)N[C@@H](C)C(=O)N[C@@H]([C@@H](C)O)C(=O)N1)[C@@H](C)O)C(=O)N1CCC[C@H]1C(=O)N[C@@H](CO)C(=O)N[C@@H](CO)C(=O)N[C@H](C(=O)N[C@@H](CC(N)=O)C(=O)N[C@H](C(=O)NCC(=O)N1CCC[C@H]1C(=O)N[C@@H](CCCNC(=N)N)C(=O)N[C@H](C(=O)N[C@@H](Cc1ccc(O)cc1)C(N)=O)[C@@H](C)O)C(C)C)[C@@H](C)O, not restated for each compound)
4 | 59.4 | 47 | 40.3 | 1.17 | K([γGlu-C18 diacid])CNTATCATQRLANFLRHSSPNFGAIPSSTNVGHNTY-NH2 (disulfide 2-7; N-terminus assumed; SMILES CC[C@H](C)[C@H](NC(=O)[C@H](C)NC(=O)CNC(=O)[C@H](Cc1ccccc1)NC(=O)[C@H](CC(N)=O)NC(=O)[C@@H]1CCCN1C(=O)[C@H](CO)NC(=O)[C@H](CO)NC(=O)[C@H](Cc1c[nH]cn1)NC(=O)[C@H](CCCNC(=N)N)NC(=O)[C@H](CC(C)C)NC(=O)[C@H](Cc1ccccc1)NC(=O)[C@H](CC(N)=O)NC(=O)[C@H](C)NC(=O)[C@H](CC(C)C)NC(=O)[C@H](CCCNC(=N)N)NC(=O)[C@H](CCC(N)=O)NC(=O)[C@@H](NC(=O)[C@H](C)NC(=O)[C@@H]1CSSC[C@H](NC(=O)[C@@H](N)CCCCNC(=O)CC[C@H](NC(=O)CCCCCCCCCCCCCCCCC(=O)O)C(=O)O)C(=O)N[C@@H](CC(N)=O)C(=O)N[C@@H]([C@@H](C)O)C(=O)N[C@@H](C)C(=O)N[C@@H]([C@@H](C)O)C(=O)N1)[C@@H](C)O)C(=O)N1CCC[C@H]1C(=O)N[C@@H](CO)C(=O)N[C@@H](CO)C(=O)N[C@H](C(=O)N[C@@H](CC(N)=O)C(=O)N[C@H](C(=O)NCC(=O)N[C@@H](Cc1c[nH]cn1)C(=O)N[C@@H](CC(N)=O)C(=O)N[C@H](C(=O)N[C@@H](Cc1ccc(O)cc1)C(N)=O)[C@@H](C)O)C(C)C)[C@@H](C)O, not restated for each compound) [N^ε1-[(4S)-4-carboxy-4-(17-carboxyheptadecanoylamino)butanoyl]-[Arg17,Pro21,Pro27,His34]-h-amylin]
